In the DeepSol protein solubility set:

assay: soluble on expression in E. coli; label from the status in PepcDB or PDB records

**Q.** For “DERLELMESVDVGQTPSNVVYEENKLELLHYDAEAAGIEVPDEEKEDVPILIVYALINRPYILDLQEERSVVRRLLEAGHDVYLIDWNEPSRLDQHLTLDDYVNRYMDNCVDVVRDRSGQDAINILGYCMGGTMSVMYTALHKEKVNTLGLMAAGLCFDHTGGVLEEWGSEEYYSPQDVVDTFGNVPADMLDIGFALMDPVENYVTKYIRFAENMENEGFVENFGRMEQWLGDGIDVAGEAYVQFLEDVYQDNKLYKNELELDGKHVDLDNIDMPVLQLMGEYDHLIPPEASKPFNDVIASDDTRTIEFSTGHIGLSVSSSTHADLWPEVAEWYSER”, which “soluble on expression in E. coli” value is on record?
**A.** not soluble

**Q.** Which “soluble on expression in E. coli” value does the source give for “MGSDKIHHHHHHMNQYERKMLDLLKRGKQELGYVGVKAEFEAEGTRTDELLRLIELARKAGLNVGLKIGGCEAMRDLMESKQYGVEYIIAPMIESGYALSKFIDAKNKVYSKDEQRDTRFLFNVETKSAFGCMDELVQIAAQPGGADGVVFGRVDFSLSMGLTRDDINDPKVTSYCLEVSEACKRSGLDFVVGGGVSMDALSIMKELNSSHLSRFETRKIIFDAAMMENADVHNGLLQAVHFELLWLLNKREYYSCILKEDAKRIEMLERRWHVLSADEKASTSTYVNQPNI” here?
**A.** not soluble

**Q.** With “MISVMQQMINNDSPEDSKESITSVQQTPFFWPSAAAAIPSIQGESRSERESETGSSPQLAPSSTGMVMPGTAGMYGFGPSRMPTANEFGMMMNPVYTDFYQNPLASTDITIPTTAGSSAATTPNAAMHLPWAISHDGKKKRQPYKKDQISRLEYEYSVNQYLTNKRRSELSAQLMLDEKQVKVWFQNRRMKDKKLRQRHSGPFPHGAPVTPCIERLIN” as the sequence, how does the “soluble on expression in E. coli” value read?
**A.** not soluble

**Q.** For “MTAIAPVITIDGPSGAGKGTLCKAMAEALQWHLLDSGAIYRVLALAALHHHVDVASEDALVPLASHLDVRFVSTNGNLEVILEGEDVSGEIRTQEVANAASQVAAFPRVREALLRRQRAFRELPGLIADGRDMGTVVFPDAPVKIFLDASSEERAHRRMLQLQEKGFSVNFERLLAEIKERDDRDRNRAVAPLVPAADALVLDSTTLSIEQVIEKALQYARQKLALA”, which “soluble on expression in E. coli” value is on record?
**A.** soluble

**Q.** For “MPVELKSFDEFVKVVERAVECRVKRGKDVVKIKARTKRYLYTLKVPPEKEAEVLEQVKAKCKNLVELLEHHHHHHLEHHHHHHLEHHHHHHLEHHHHHHLEHHHHHHLEHHHHHHLEHHHHHH”, which “soluble on expression in E. coli” value is on record?
**A.** not soluble

**Q.** For “MIDVLLGADDGSLAFVPSEFSCSPGCKIVFKNNAGFPHNIVFDEDSIPSGVDASKISMSEEDLLNAKGETFEVALSNKGEYSFYCSPHQGAGMVGKVTVN”, which “soluble on expression in E. coli” value is on record?
**A.** soluble

**Q.** Which “soluble on expression in E. coli” value does the source give for “MSLKITDVQLTAIGMPRLTGFVNKHVIVQLFTDEGIEGIGEMSDFSHLPKYAVDIVDLERTLKQILVGKNPFDIAPINTELNGNFPEAMYYYEKGSFIRNGVDTALYDLCAKALGVSVSDLLGGRQREKIKVCFPIFRHRFMDEVEANLELVKKQYEKGFDVFRLYVGKNVDADEAFLAGVYNEFGGKVKVKSLDFSHLLDWKEALRITRRLAKYPIDLVESPALRNDFAGLHHFRMRCELPVSEHVWSLRQQSEMIKHDSVDIFNIAPVFIGGITQARKAADAAAVAEKSVLIGTTQELSIGTTAMAYFGSTLDHLNYISDPTGPELYVGDVVKNKVNYENGYLHLPERSTIGLGMELDWEKVEQYRVESLNWEDVSVHQLQDRTAQTRAEGHHHHHH” here?
**A.** soluble

**Q.** Which “soluble on expression in E. coli” value does the source give for “TKDFEWSSTINAAYQKDEIVELANGKQDDISNAWFIGESINVFYGTASDGLWQESDAAEMAKFNANGHKFEAGMVKPVDQDGNYIIDSNDRIILGNKNPKWVLGWSNTFNYKGLELGIELNGRFGYMVDTGGEGQYGMYNQREISYWTPDNTGADYQKPIYSTAGGDAYSSLLGFKDASFIKIRNISLGYNFNSKALKNIGISSLKLYAQAKNIGNLYSSVDFMDLDLGTTYYNRGFTFGLQVGF” here?
**A.** not soluble

**Q.** For “MLRISELKLPLDHTQEELADAVAGFLKAPADEVRGFTVFKRSYDARKGVMSLVYIIDVDVANEDKLFARFKGDRRVMPTPDTHYYYVAQAPESLKSRPVVVGFGPCGIFAALILAQMGFKPIVLERGKEVRQRTKDTWGLWRKSELNTESNVQYGEGGAGTFSDGKLYSQIKDPRHLGRKVLTEFVKAGAPEEILYLARPHIGTFRLVSMVENMRAEIIALGGEIRFEQRVDDLILDGDRVRGVKLADGGEVLSDHVVLALGHSARDTFQMLEKRGVYMEAKPFSVGVRIEHPQSLIDAARWGKYAGHPILGAADYKLVHHAGNGRAVYSFCMCPGGTVVAATSEEKRVVTNGMSQYSRNERNANSGFVVSISPEVDYPGGPLAGLDFQRELESKAYELGGGDYFAPAQLLGDFMAGKASTQLGSVEPSYKPGVTMTDLARILPDFCVEAMREAIPHFARQIRGYDLHDAVLTGLETRTSSPLRITRGEDFQSLNIKGLFPAGEGAGYAGGILSAGVDGIKVAEAVAKAMLGQLEHHHHHH”, which “soluble on expression in E. coli” value is on record?
**A.** soluble

**Q.** With “MGNPTGFINVGRALPTERKAGERLSDWLEVYEEIPLKAVEKQASRCMDCGVPFCQSAKSEFAPAVAGCPVNNVIPEWNDLIYRGRWKDAIELLHKTNNFPEFTGRVCPAPCEGACVLGINADPVAIKLHEKEIIDHAFKEGWVVAQPPSARTGKNVAVIGSGPAGLAAAAQLNKAGHMVTVYERADRIGGLLMYGIPNMKLQKELVQRRVDILAEEGIVFVTNTEVGKDVSVEKLESDFDAIVLCIGATVPRDLPVEGRELNGVHFAMDFLKANTKSLLDSEHKDGQYINAQGKNVVVIGGGDTGTDCIGTSLRHQCTNALQLEIMPRPPEKREENNNPWPQWPKRLLVDYGQKEAIEIQGQDPRQYLVMTKKIESDVQGNVKAVHTVDITWERNDKGQMFPQEVAGSEKAIPADIVLIAMGFMGPEGGLVEQFGLEQDNRSNIAAEYDKFATSKQGVFAAGDGRRGQSLIVWAIDEGRRCAREVDSYLMGKSYLPLEHHHHHH” as the sequence, how does the “soluble on expression in E. coli” value read?
**A.** not soluble

**Q.** With “MGSDKIHHHHHHMTIHISTAPCCWGVDDVKNPYLPAWRDVLGEASEAGYRGVELGPYGYLPLDPAVVSAALGENRLHVVAGTVFDDLVTLTNLPSLLRQTHDICALLKQLPPIDKEPGQRFAGPYLVIIDWGHEERDYAAGHSELAQRLDDGAWQTMMEHIRAICQIAWHEYGIRPVIHPHAGGYIEFADELARLVDDIPDDVAGLCLDTGHLYYAGMDPAASLRTYADRLDYIHFKDIDQSVFDDVMKQRIKFFDACARGVMCPIGRGVIDYPSLYRLIQTLGYEGYITVEQERDPRNANGSLEDVRSSRTYLANVGF” as the sequence, how does the “soluble on expression in E. coli” value read?
**A.** not soluble

**Q.** Which “soluble on expression in E. coli” value does the source give for “MAHHHHHHMIRKIIILMFTFFSNIHNEKIYHHKQRRKFLKGPLGYLNRNVIQKKHYNLYAKKFINYKEIQIQRINDYRKRSGVDKNNINYNLRDTYNYHETHLFVRNEVLPTLAKIENENLKEKEKNKEIFRNINDYNSNFTRQTFLQFLMDLYNIFLKIDDLFLENKTYFSILIYNGPMQLTNHLYDDIIYVSSVVENSDDVSPSEYCMEYISHLENLCEENKLSFLAHAYVFYKNFHLSKEHLLKSICKYLNIIKKLKSSTYVADVENFEVSQKCFLHLLFCLNKMSRKWSRWEKDNFLASLHNATNKMMILTKHFEKVKS” here?
**A.** not soluble

**Q.** For “CEGGVDMQQSQVQLQCPLTPPRGLQVSIQGEAVAVRPGEDVLFVVRQEQGDVLTTKYQVDLGDGFKAMYVNLTLTGEPIRHRYESPGIYRVSVRAENTAGHDEAVLFVQV”, which “soluble on expression in E. coli” value is on record?
**A.** soluble

**Q.** Which “soluble on expression in E. coli” value does the source give for “MGSDKIHHHHHHMALLEVHNLNKRFTDHISLFHKQRFYAVKNISFNLNEGETIAIIGENGAGKSTLAKMIAGITKPTSGDMFFRYKKLTYGDYQFRTKHIRMMFQDPNHTFNPNHNIGQILDAPLRLATDMNEQERNECIFNTLKLVGMYPEYALIPIKETSTSQKQRIALARALILSPEIIIADDTLSTLDFSVKTQLTNLMLNLQEKLGIAFIYVGQHLGIIKHIADKLIIMHQGEAIEYGDTKEVLLNPQNPITARLIESHFGKMLTEDAWAK” here?
**A.** not soluble

**Q.** With “MTTAKPNTVEQFEHVIDICREVFQKKLHDYGASWRVMRPSSLTDQLYIKANRIRNIQMKGLSKVDEGVESEFIGVVNYGVIALIQLELGVADTPKMETEEALRLYDLKIREAMSLMLDKNHDYGEAWRQMRVSSFADLILTKVFRTKEIEDLGGDTYISEGVDANYMDMINYAIFALIQLNG” as the sequence, how does the “soluble on expression in E. coli” value read?
**A.** not soluble

**Q.** With “MSTKMTPPVEKNEFIDVVFEDLTHDGAGVAKVKGYPIFVKNGLPGEEAQIKIIKVKKNFAFGRLMKLHTESPYRKDAECPVYNQCGGCQLQHLTYEGQLQAKEKQVRDVMQRIGGLADVPVHPVLGMKNPWVYRNKAQVPIGEREGGLVAGFYRQGTHDIINMESCLIQAEENDTLIQEVKRICEKHGITAYNEERNKGTLRHVMARYGQVTGEIMLVFITRTAELPNKKAIIEEIAAKFPEVKSIVQNVNTKRTNVIFGDKTTVLYGSEYIYDFIGDIKFAISARSFYQVNPEQTKVLYDKTLEYAKLNGNETVIDAYCGIGSISLFLAQKAKKVYGVEIVPEAIEDANRNAALNNMTNAEFGVGEAEVVIPKWYKEGVIADTMVVDPPRKGCDEALLNTIIDMKPNRVVYVSCNPATLARDLKVLEEGGYKTQEVQPVDMFPHTTHVECVAWLKLV” as the sequence, how does the “soluble on expression in E. coli” value read?
**A.** not soluble

**Q.** With “MSNTQAERSIIGMIDMFHKYTRRDDKIDKPSLLTMMKENFPNFLSACDKKGTNYLADVFEKKDKNEDKKIDFSEFLSLLGDIATDYHKQSHGAAPCSGGSQ” as the sequence, how does the “soluble on expression in E. coli” value read?
**A.** not soluble

**Q.** For “GMSHVSYAEPPAQGWDIHCHTVFSDGTETPRTLVEQARKLGLHGVAIADHDTTAGWDEATEASEEIGLPLLLGTEITAVDEDVSVHMLAFQYDPSNEHISSMFANTRAARLRRTKRMVERLSQDFPITWDDVLAQVKEGERTTIGRPHIADALVAAGVYETRSDAFADAVSAKSKYYIPTPSPSTHEVIAAVKGAGGVVVAAHAGDPQRNRRLLSDEQLDAMIADGLDGLEVWHRGNPPEQRERLLTIAARHDLLVTGGSDWHGKGKPNGLGENLTDDDTVREILCRGVDLIGRVGSSHAA”, which “soluble on expression in E. coli” value is on record?
**A.** soluble

**Q.** Which “soluble on expression in E. coli” value does the source give for “PAPTPSSSPVPTLSPEQQEMLQAFSTQSGMNLEWSQKCLQDNNWDYTRSAQAFTHLKAKGEIPEVAFMK” here?
**A.** soluble

**Q.** Which “soluble on expression in E. coli” value does the source give for “MTKVHVVLRKEDIDEMALADRKVAVVFDVLLATSSITAVLAAGARSVIPVRDAEEAKEIALRLPEGSYELVGEYEGRTIAGFHPPAPLFLQTVCPGKTVVLSTTNGTVAIRRAQPARAVYAASLLNSPAVSEHICRLHQEETIIVICSGSSGRFCLEDFYGAGYFVHCLIEQGINAAELSDSATAAWFFYRQYSDEGKAKEVLSASRVGRWMTAYGLEKEIDYINRHGSLSAVPKLELGPFGLELRNMASTKVAKEGISP” here?
**A.** soluble

**Q.** For “MTLSFRVNPEYAAMSEIVPGLFICGVSALSKDEMKKHKITHIINATTEVPNLRSLGDIQRTKLWLEDTPQTYIYPHLELQSDQIQALIADGGKVLVHCVAGVSRSASICLAFLLKYRCRNLREAYHLMKSKRSMVRPNLGFWRQLIAYEQNVKENAGSVRLVRDEAQPEQLLPDVYLNIAIPARPASPEQDPNMIPDEPRERRNSGFKSKFRPVLEPVMEMAEAVC”, which “soluble on expression in E. coli” value is on record?
**A.** not soluble

**Q.** Which “soluble on expression in E. coli” value does the source give for “MVNRCFFFNRRICFMELFLLRHGKPDIRRSMAIRSVDMYSWIGEYDAAGILDSPDASTVAASEGKFIVSSPMPRALESVAALGLEPDIIIDELHEAPLPVFNIPLLKLTPLVWAALFRIFWMAGGSGGVETFSSVKIRAKLVSCELDKMAETHGSVLSVGHGFMNALVARELQKAGWKRQKVGPSGYWSGIKLVRLEHHHHHH” here?
**A.** soluble
